According to the supplement of paper PMC9732359:
± gives the uncertainty stated by the source.

Experiment: protein stability index of a GFP-peptide fusion (yeast GPS) (PSI 1-4); higher = more stable; sorted into four equal gates, so the index is relative within each strain
Summary of the method: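 Tiled 17-residue yeast protein peptides were fused downstream of GFP in a plasmid that also expresses Cherry, and the pooled library was carried in yeast. Mid-log cultures in leucine-free medium were sorted into four equal gates by GFP/Cherry fluorescence ratio, and plasmids from each gate were PCR-amplified and Illumina-sequenced, with reads assigned to strains by barcodes. The protein stability index for each peptide was each gate's read frequency times its gate number, summed.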

Sequence | protein stability index (doa10∆) | protein stability index (pdr5∆) | protein stability index (san1∆) | protein stability index (ubr1∆)
DATNTSYKMIQLDAYGE [SWP82] | 3.29 ± 0.087 | 3.39 ± 0.077 | 3.25 ± 0.057 | 3.16 ± 0.05
SNNTGNTAFGNSNPTSN [YJL041W/NSP1] | 3.01 ± 0.15 | 3.19 ± 0.13 | 2.66 ± 0.15 | –
GSGNNNEIESRQLTSLG [SNU114] | 3.4 ± 0.16 | 3.32 ± 0.16 | – | 3.19 ± 0.19
AATVRSTIRRLREMVEA [RPL43A] | 3.02 ± 0.084 | 2.8 ± 0.056 | 2.74 ± 0.086 | 3.09 ± 0.064
DSLASELTLAEQQVKEA [SMC4] | 3.24 ± 0.21 | 3.53 ± 0.11 | 3.23 ± 0.15 | 3.39 ± 0.23
SVKLDLQDDEDHKFPIR [BRN1] | 2.99 ± 0.18 | 2.88 ± 0.098 | 2.76 ± 0.14 | 2.22 ± 0.17
RGIPRISTLFQRDRHTL [PRP8] | 2.57 ± 0.095 | 2.66 ± 0.16 | 2.08 ± 0.079 | 2.68 ± 0.085
KSHKQTIVTGGGSGNGD [RPP1] | 3.15 ± 0.27 | 3.55 ± 0.15 | – | 3.44 ± 0.2
FDPSRIKDLKQREDKLK [SMC2] | 2.66 ± 0.087 | 2.88 ± 0.18 | 2.99 ± 0.28 | 2.92 ± 0.13
NCKKKKKRKKKNKSAID [RMP1] | 2.57 ± 0.1 | 2.67 ± 0.13 | 2.79 ± 0.089 | 3.37 ± 0.16
KVWLDPNETSEIAQANS [RPL19A] | 3.16 ± 0.23 | 3.69 ± 0.24 | – | 3.04 ± 0.29
KALKTNINFASGVKNDI [CDC53] | 3.09 ± 0.089 | 3.22 ± 0.068 | 2.83 ± 0.095 | 3.04 ± 0.074
NNSNSNNNSSNEKEQLS [SEC65] | 2.77 ± 0.041 | 2.72 ± 0.041 | 2.79 ± 0.031 | 2.76 ± 0.035
KVSPSMCGVIVKQYNKK [SIN4] | 3 ± 0.19 | 2.98 ± 0.15 | 2.58 ± 0.15 | 3.15 ± 0.14
TVTIASSLNLEDTPAND [RPB8] | 2.83 ± 0.066 | 2.81 ± 0.054 | 2.65 ± 0.06 | 2.88 ± 0.067
HIKEASEEVDDLSMVPK [SNF2] | 3.27 ± 0.11 | 3.24 ± 0.25 | 3.13 ± 0.1 | 3.6 ± 0.16
WREIIEKVRDYENSISK [IRR1] | 2.86 ± 0.076 | 2.59 ± 0.085 | 2.39 ± 0.061 | 2.67 ± 0.047
DKFSPEDGLGPLMAKSV [ARP7] | 3.02 ± 0.11 | 3.06 ± 0.11 | 2.66 ± 0.13 | 3.39 ± 0.097
VLQNVFKLVSTPSSNSN [MED1] | 1.44 ± 0.04 | 1.67 ± 0.041 | 1.5 ± 0.072 | 1.36 ± 0.038
YHLHPTFANPNRTFTDP [TAF14] | 1.94 ± 0.068 | 2.02 ± 0.055 | 2.21 ± 0.1 | 1.7 ± 0.036
EIEQLDQYIQKQVQISH [YGL172W/NUP49] | 2.91 ± 0.056 | 3.11 ± 0.05 | 2.75 ± 0.073 | 2.87 ± 0.059
TNQIFQSRRYNLRRHSD [SIN4] | 2.94 ± 0.045 | 3.18 ± 0.04 | 3.04 ± 0.045 | 3.08 ± 0.031
LLSFVLGVVFGRGGSGW [YML031W/NDC1] | 2.33 ± 0.068 | 2.28 ± 0.067 | 2.31 ± 0.077 | 2.37 ± 0.096
NYTKDNEYYPMCEQALS [YCS4] | 2.25 ± 0.066 | 2.61 ± 0.087 | 2.6 ± 0.071 | 2.47 ± 0.052
VTIWYRAPELLLGARHY [SSN3] | 1.9 ± 0.1 | 1.85 ± 0.096 | 2.07 ± 0.15 | 1.9 ± 0.072
PLLESFITFSLDDWISI [IRR1] | 3.04 ± 0.078 | 2.46 ± 0.063 | 2.5 ± 0.054 | 2.54 ± 0.052

Sequence | protein stability index (doa10∆) | protein stability index (pdr5∆) | protein stability index (san1∆) | protein stability index (ubr1∆)
VAARAEILRIHSRKMNL [RPT6] | 2.59 ± 0.056 | 2.53 ± 0.054 | 2.5 ± 0.081 | 2.64 ± 0.068
DGIVVKNAVVRSKFGGD [ARP7] | 3.24 ± 0.26 | 1.92 ± 0.2 | 3.16 ± 0.25 | 3.56 ± 0.2
SYYDNDLDETTQTFNGS [YML031W/NDC1] | 2.77 ± 0.043 | 2.78 ± 0.033 | 2.66 ± 0.038 | 2.81 ± 0.033
TYNEDIPVEILVRRLSD [PRE9] | 3.06 ± 0.079 | 2.84 ± 0.077 | 3.14 ± 0.064 | 2.85 ± 0.059
LWSIHPSRQFDHYESNQ [SRB8] | 1.75 ± 0.074 | 2.24 ± 0.068 | 2.13 ± 0.11 | 2.64 ± 0.062
DQHVINILWAIYNSASK [YCS4] | 1.69 ± 0.044 | 2.22 ± 0.048 | 1.63 ± 0.077 | 1.59 ± 0.041
KIDKPIRTQVNTGGESV [RGR1] | 2.4 ± 0.06 | 2.4 ± 0.044 | 2.32 ± 0.052 | 2.25 ± 0.036
KQLNSLRRSGQIANDPS [SMD1] | 2.56 ± 0.09 | 3.02 ± 0.14 | – | 2.91 ± 0.07
KKYTQNNPLLLIVDVKQ [RPN8] | 1.4 ± 0.068 | 1.31 ± 0.046 | 1.06 ± 0.14 | 1.16 ± 0.048
QPKPLFSFGKSDAAKEP [YOR098C/NUP1] | 2.52 ± 0.07 | 2.6 ± 0.039 | 2.44 ± 0.073 | 2.72 ± 0.085
SENVFEGLTYKYPARRI [SSN3] | 3.18 ± 0.11 | 3 ± 0.17 | 2.62 ± 0.17 | 2.86 ± 0.089
VKQEDMPFNDQGIVPDI [RET1] | 2.86 ± 0.084 | 3.06 ± 0.059 | 2.91 ± 0.064 | 3.17 ± 0.043
THTNLERDEQKRAEKKA [SNF2] | 3.35 ± 0.099 | 3.45 ± 0.11 | 2.77 ± 0.12 | 3.23 ± 0.059
IKEENDMENMADEQKRS [ARP7] | 3.54 ± 0.17 | 3.48 ± 0.15 | 3.24 ± 0.095 | 3.19 ± 0.24
LQKKVASILLALTQMDQ [RPB3] | 2.88 ± 0.15 | 2.9 ± 0.14 | 2.16 ± 0.15 | 2.62 ± 0.066
RERRAALTDFERFQVMV [RPL14A] | 1.77 ± 0.12 | 2.24 ± 0.094 | 1.41 ± 0.13 | 1.8 ± 0.07
STISAREIQTAVRLILP [HTB1] | 2.13 ± 0.11 | 2.31 ± 0.12 | 2.52 ± 0.087 | 2.38 ± 0.074
EPQGAVTHMDQIFVRGS [SMD3] | 2.64 ± 0.11 | 2.77 ± 0.07 | 2.62 ± 0.099 | 2.56 ± 0.11
WGVNLPAHTVIIKGTDV [BRR2] | 2.82 ± 0.086 | 2.79 ± 0.13 | 2.32 ± 0.083 | 2.58 ± 0.058
SNGGNNMLPQRQSSVGS [SNF2] | 1.76 ± 0.067 | 2.18 ± 0.097 | 2.19 ± 0.076 | 2.55 ± 0.045
NTSAATVHTATSSSIIL [SSN2] | 2.41 ± 0.053 | 2.761 ± 0.026 | 2.61 ± 0.045 | 2.65 ± 0.038
CTFSMEPYHFISNYNTK [SRB8] | 1.99 ± 0.083 | 2.09 ± 0.05 | 1.5 ± 0.079 | 1.71 ± 0.052
KYSKLVDNVTLESYKTQ [SRP72] | 3.54 ± 0.15 | 3.22 ± 0.16 | 3.42 ± 0.1 | 3.22 ± 0.11
DRVVSSDSLDIAQGIDL [SRP72] | 2.85 ± 0.069 | 2.6 ± 0.062 | 2.27 ± 0.079 | 3 ± 0.079
KRLTEDERIEKELNTER [CDC53] | – | 2.89 ± 0.16 | 2.33 ± 0.1 | 2.31 ± 0.12
